Source: patent US20190161551A1

Assays:
[1] = molecular target: human TrkB extracellular domain (aa Cys32-His430) expressed with the Fc portion of human IgG1 at the C-terminus (human); assay: competition ELISA, 500 pM hTrkB-hFc pre-mixed with mAb, plate-coated hNT-4
[2] = molecular target: human TrkB extracellular domain (aa Cys32-His430) expressed with the Fc portion of human IgG1 at the C-terminus (human); assay: competition ELISA, 500 pM hTrkB-hFc pre-mixed with mAb, plate-coated hBDNF

Chain of human TrkB extracellular domain (aa Cys32-His430) expressed with the Fc portion of human IgG1 at the C-terminus (human) (chain, as listed by the source limits assumed): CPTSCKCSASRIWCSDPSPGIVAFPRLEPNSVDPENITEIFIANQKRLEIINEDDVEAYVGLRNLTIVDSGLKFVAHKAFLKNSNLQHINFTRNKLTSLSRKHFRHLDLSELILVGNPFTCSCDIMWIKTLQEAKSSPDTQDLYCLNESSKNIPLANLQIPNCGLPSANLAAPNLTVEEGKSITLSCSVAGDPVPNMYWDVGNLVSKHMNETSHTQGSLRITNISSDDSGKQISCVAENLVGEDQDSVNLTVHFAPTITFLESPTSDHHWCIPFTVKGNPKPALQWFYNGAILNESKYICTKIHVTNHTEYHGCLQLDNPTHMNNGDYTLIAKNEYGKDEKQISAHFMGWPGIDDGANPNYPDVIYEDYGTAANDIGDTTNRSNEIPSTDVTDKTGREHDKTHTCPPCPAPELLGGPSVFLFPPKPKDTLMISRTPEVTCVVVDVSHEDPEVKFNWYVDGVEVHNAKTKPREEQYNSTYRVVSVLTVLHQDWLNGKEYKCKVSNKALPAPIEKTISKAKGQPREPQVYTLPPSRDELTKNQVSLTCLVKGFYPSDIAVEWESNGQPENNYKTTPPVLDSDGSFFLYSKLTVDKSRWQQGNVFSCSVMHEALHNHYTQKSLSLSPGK

| Substance | % Blockade with 100 nM antibody [1] [%] | % Blockade with 100 nM antibody [2] [%] |
| --- | --- | --- |
| hIgG4 negative isotype control (antibody) | -45 | -31 |
| mIgG1 negative isotype control (antibody) | -14 | -19 |
